Results reported in US20110086026A1 (ROCHE PALO ALTO, published 2011).

T1: extracellular domain of hIL-13Rα1 cleaved from hIL-13Rα1:hFc chimeric protein (human, UniProt P78552 22-343)
T1 construct: extracellular domain; also called Cleaved hIL-13Rα1 molecules (MW 40 kDa)
T1 sequence (looked up): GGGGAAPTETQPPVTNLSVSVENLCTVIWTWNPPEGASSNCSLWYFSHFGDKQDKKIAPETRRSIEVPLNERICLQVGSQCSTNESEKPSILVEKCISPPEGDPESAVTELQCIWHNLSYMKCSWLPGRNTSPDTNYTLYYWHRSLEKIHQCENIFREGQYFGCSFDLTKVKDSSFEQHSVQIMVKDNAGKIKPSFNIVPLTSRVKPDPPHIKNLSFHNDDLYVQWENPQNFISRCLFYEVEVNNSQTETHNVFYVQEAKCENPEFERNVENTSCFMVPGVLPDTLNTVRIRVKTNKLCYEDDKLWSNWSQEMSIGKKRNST

T2: Cynomolgus IL-13Rα1 expressed in transfected Ba/F3 cells (Cynomolgus, UniProt A0A7N9D0M5 20-425)
T2 construct: Stably transfected murine Ba/F3 cells
T2 sequence: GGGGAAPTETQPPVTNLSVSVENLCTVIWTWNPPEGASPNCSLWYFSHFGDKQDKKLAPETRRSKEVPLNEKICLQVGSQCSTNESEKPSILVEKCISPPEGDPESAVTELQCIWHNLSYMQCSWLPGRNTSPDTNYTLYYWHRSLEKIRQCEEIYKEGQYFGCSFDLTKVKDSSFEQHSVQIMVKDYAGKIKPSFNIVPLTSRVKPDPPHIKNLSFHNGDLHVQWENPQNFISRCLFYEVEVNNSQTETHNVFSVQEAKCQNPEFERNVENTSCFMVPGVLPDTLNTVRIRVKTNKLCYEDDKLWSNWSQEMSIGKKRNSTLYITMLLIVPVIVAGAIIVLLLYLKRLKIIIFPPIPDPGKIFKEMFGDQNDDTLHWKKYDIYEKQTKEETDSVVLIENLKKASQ

T3: hIL-13Rα1:hFc chimeric protein (R&D Systems, UK) (human, UniProt P78552 22-343)
T3 construct: extracellular domain; Bought; also called chimeric hIL-13Rα1:hFc; not shown: human Fc (hFc) of the bought chimera
T3 sequence (looked up): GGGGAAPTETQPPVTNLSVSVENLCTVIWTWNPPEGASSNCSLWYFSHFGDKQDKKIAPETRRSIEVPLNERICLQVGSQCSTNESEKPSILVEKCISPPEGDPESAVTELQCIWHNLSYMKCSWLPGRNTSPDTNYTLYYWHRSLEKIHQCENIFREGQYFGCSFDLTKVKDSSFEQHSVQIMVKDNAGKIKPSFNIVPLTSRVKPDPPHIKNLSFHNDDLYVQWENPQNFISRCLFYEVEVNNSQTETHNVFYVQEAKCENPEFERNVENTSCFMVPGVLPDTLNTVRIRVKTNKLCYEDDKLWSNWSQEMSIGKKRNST

T4: human IL-13Rα1 (human, UniProt P78552 22-427)
T4 sequence (looked up): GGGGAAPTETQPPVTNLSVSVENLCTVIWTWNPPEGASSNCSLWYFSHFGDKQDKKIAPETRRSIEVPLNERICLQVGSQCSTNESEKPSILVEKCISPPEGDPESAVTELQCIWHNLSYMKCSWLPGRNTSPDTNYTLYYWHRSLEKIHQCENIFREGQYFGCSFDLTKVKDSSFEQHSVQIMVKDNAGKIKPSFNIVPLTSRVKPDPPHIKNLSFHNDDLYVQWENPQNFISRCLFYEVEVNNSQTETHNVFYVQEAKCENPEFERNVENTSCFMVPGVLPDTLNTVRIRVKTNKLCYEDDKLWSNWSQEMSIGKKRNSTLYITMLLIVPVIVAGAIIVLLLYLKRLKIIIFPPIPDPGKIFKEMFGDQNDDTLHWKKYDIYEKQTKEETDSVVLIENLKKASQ


What was measured:
[1] = biological target: T1, extracellular domain of hIL-13Rα1 …; experiment: SPR Biacore 3000, C1 chip, HuMab captured by anti-hFcγ, cleaved hIL-13Rα1 as analyte, 1:1 Langmuir model
Protocol: For interaction analysis, a Biacore 3000 instrument was used. Running and reaction buffer was HBS-P (10 mM HEPES, 150 mM NaCl, 0.005% polysurfactant P, pH 7.4) at 25° C. Capturing antibody molecules (anti-hFcγ) were amine-coupled at a concentration of 100 μg/ml at a flow rate of 5 μl/min for 20 minutes. HuMabs were injected at concentrations of 10 μg/ml at a flow rate of 10 μl/min for 30 seconds. Cleaved hIL-13Rα1 molecules (MW 40 kDa) were injected for 200 seconds at seven concentrations between 1.56 nM and 100 nM and washed with HBS-P for five minutes. Regeneration of the surface was accomplished by two injections of 100 mM HCl for 1 min each at a flow rate of […]. The chip, assay format and sequence of injections and kinetic data correspond to the description in the following Table 3. Kinetic data were calculated by fitting kinetic data to a 1:1 Langmuir binding model.

[2] = biological target: T2, Cynomolgus IL-13Rα1 expressed in …; experiment: FACS, transfected against parental Ba/F3 cells, 10 µg/ml
Protocol: The gene coding for IL-13Rα1 was isolated by RT-PCR from Cynomolgus tissue and transfected into in the murine cell line Ba/F3. In order to test whether the HuMabs crossreact with Cynomolgus IL-13Rα1, the stably transfected Ba/F3 cells as well as the parental Ba/F3 cells were incubated with 10 μg/ml of HuMab and control antibodies. As positive control, a polyclonal goat-anti hIL-13Rα1 (R&D Systems) was used. Negative controls included were: a human IgG1 myeloma protein (Nordic) and normal goat serum. Bound antibodies were detected by FACS analysis using an antibody directed against human IgG conjugated with FITC to detect HuMabs and an antibody directed against goat IgG conjugated with FITC to detect goat antibodies. Mean fluorescence intensities (MFI) were compared for the individual antibodies tested on the transfected Ba/F3 line versus the parental line.
All HuMabs of the invention were able to bind to Cynomolgus IL-13Rα1 expressed in transfected Ba/F3 cells. As expected from the close homology between human and Cynomolgus IL-13Rα1, the polyclonal AF152 antibody also bound to the Cynomolgus IL-13Rα1.

[3] = biological target: T3, hIL-13Rα1:hFc chimeric protein (R&D …); experiment: competition ELISA: hIL-13Rα1:hFc coated, antibody first, then IL-13 plus IL-4Rα; bound IL-13 detected with biotinylated anti-IL-13
Protocol: Microtiter plates were coated with 100 μl hIL-13Rα1:hFc chimeric protein (R&D Systems, UK) in PBS at 3 μg/ml at 4° C. overnight on a shaker. After washing the plates with WB, serially diluted HuMab and control antibodies (100 μl/well; dilutions in IB) were added and incubated for 30 min at RT. The plates were again washed, and then a mixture of IL-13 (R&D Systems, UK; 0.5 μg/ml; dilution with IB) and IL-4Rα (R&D Systems, UK; 0.75 μg/ml; dilution with IB) were added and incubated for 1 h at RT. After washing the plates 100 μl biotinylated anti IL-13 antibody (BAF213; R&D Systems, UK) in a concentration of 0.4 μg/ml was added and incubated for 1 h at RT. After washing the plates, bound IL-13 was detected by peroxidase-coupled streptavidin (Roche Diagnostics GmbH, DE) in a dilution of 1:5000 in IB (incubation period 1 h at RT). Finally, plates were washed and developed with ready-to-use ABTS® solution (Roche Diagnostics GmbH, DE) at room temperature (RT) in the dark. Absorbance was measured at 405 nm after 45 to 60 minutes.

[4] = biological target: T4, human IL-13Rα1; experiment: cell-based or functional assay

Kd [1] [nM]	koff [1] [s⁻¹]	kon [1] [M⁻¹ s⁻¹]	Fold Increase in MFI in the presence of Cyno_IL-13Rα1 [2]	IC50 (read off the curve) [3] [nM]	IC50, IL-13-induced Stat-6 phosphorylation in BSMC [4] [nM]	IC50, TF-1 proliferation in response to IL-13 [4] [nM]	Binder
4.4	0.00083	190000	14.9	~1	–	–	HuMab LC5002-007 (antibody, human IgG1, V domains shown, Human IgG1 kappa from a HuMab mouse hybridoma; Only the variable domains are tied to this antibody; also called hu-MAB<h-IL-13R alpha>LC.5002-007 (DSM ACC2712)) VH: QVQLVQSGAEVKKPGSSVKVSCKVSGGTFSSYAFSWVRQAPGQGLEWMGRIIPILGRTNYAQKFQGRVTITADKSTSTAYMEVSSLRSEDTAVYYCAREGETLDYFYYGMDVWGQGTTVTVSS VL: EIVLTQSPGTLSLSPGERATLSCRASQSVSSSYLAWYQQKPGQAPRLLIYGASSRAIGIPDRFSGSGSGTDFTLTISRLEPEDFAVYYCQHYGSSLTFGGGTKVEIK
0.22	0.0003	1.4e+06	86.7	–	1.18	0.39	HuMab LC5002-005 (antibody, V domains shown, Only the variable domains are tied to this antibody; also called hu-MAB<h-IL-13Ralpha>LC.5002-005 (DSM ACC2711)) VH: EVQVLDSGGGLVQPGGSLRLSCTASGFTFRLYTMSWVRQTPGRGLEWVSGISGSGLSTYFADSVKGRFTISRDNSKNTVYLQMNSLRAEDTAVYYCAKEGDWIYFDSWGQGTLVIVSS VL: DIQMTQSPSSLSASVGDRVTITCRASQGISSWLAWYQQKPEKAPKSLIYAASSLQSGVPSRFSGSGSGTDFTLTISSLQPEDFATYYCQQYNSHPPTFGQGTKLEIK
0.62	0.00065	1.1e+06	79.8	1 to 2.5	–	9.21	HuMab LC5002-002 (antibody, human IgG1, V domains shown, Human IgG1 kappa from a HuMab mouse hybridoma; Only the variable domains are tied to this antibody; also called hu-MAB<h-IL-13R alpha>LC.5002-002 (DSM ACC2709)) VH: EVQLLESGGGLVQPGGSLRLSCAASGFTFNIYAMNWVRQAPGKGLEWVSVISGRGITTYYADSVKGRFTISRDNSKNTLYLQMNSLRADDTAVYYCAKGSSSWTDFDYWGQGTLVTVSS VL: DIQMTQSPSSLSASVGDRVTITCRASQGISRWVAWYQQKPEKAPKSLIYAASSLQSGVPSRFSGSGSGTDFTLTISSLQPEDFATYYCQQYNSYPWTFGQGTKVEIK
0.39	0.00051	1.3e+06	79	~2	5.98	3.07	HuMab LC5002-003 (antibody, V domains shown, Human IgG1 kappa from a HuMab mouse hybridoma; Only the variable domains are tied to this antibody; also called LC50002-003; hu-MAB<h-IL-13Ralpha>LC.5002-003 (DSM ACC2710)) VH: EVQLLESGGDLIQPGGSLRLSCAASGFTFNIYAMNWVRQAPGKGLEWVSVISGRGITTYYADSVKGRFTISRDNSKNTLYLQMDSLRAEDTAVYYCAKGSSYWTDFDYWGQGTLVTVSS VL: DIQMTQSPSSLSASVGDRVTITCRASQGISSWLAWYQQKPEKAPKSLIYAASSLQSGVPSRFSGSGSGTDFTLTISSLQPEDFATYYCQQYNSYPWTFGQGTKVEIK
